Assay results published in patent US20090258344.

Legend:
[1] = target: GST-tag fusion of the GTPase Cdc42
[2] = target: GST-tag fusion of the GTPase RhoA

B1: bacterially expressed Histidine tag fusion of Dbs DH-PH domain protein (protein)
chain: LRRHVMSELLDTERAYVEELLCVLEGYAAEMDNPLMAHLLSTGLHNKKDVLFGNMEEIYHFHNRIFLRELENYTDCPELVGRCFLERMEDFQIYEKYCQNKPRSESLWRQCSDCPFFQECQRKLDHKLSLDSYLLKPVQRITKYQLLLKEMLKYSRNCEGAEDLQEALSSILGILKAVNDSMHLIAITGYDGNLGDLGKLLMQGSFSVWTDHKRGHTKVKELARFKPMQRHLFLHEKAVLFCKKREENGEGYEKAPSYSYKQSLNMAAVGITENVKGDAKKFEIWYNAREEVYIVQAPTPEIKAAWVNEIRKVLT
N-methylanthraniloyl(mant)-GTP incorporation into Rho GTPase, relative fluorescence (guanine nucleotide exchange assay) [1]: KIAA0861 and DBS DH-PH domain proteins are active in exchanging guanine nucleotide from the GST-tag fusions of the GTPases, RhoA and Cdc42
N-methylanthraniloyl(mant)-GTP incorporation into Rho GTPase, relative fluorescence (guanine nucleotide exchange assay) [2]: KIAA0861 and DBS DH-PH domain proteins are active in exchanging guanine nucleotide from the GST-tag fusions of the GTPases, RhoA and Cdc42

B2: bacterially expressed Histidine tag fusion of KIAA0861 DH-PH domain protein (protein)
chain: PRRRIIRDLLETEEIYIKEIKSIIDGYITPMDFIWLKHLIPDVLQNNKDFLFGNIRELYEFHNRTFLKELEKCAENPELLAHCFLKRKEDLQIYFKYHKNLPRARAIWQECQDCAYFGVCQRQLDHNLPLFKYLKGPSQRLIKYQMLLKGLLDFESPEDMEIDPGELGGSAKDGPKRTKDSAFSTELQQALAVIEDLIKSCELAVDLAAVTECPDDIGKLGKLLLHGPFSVWTIHKDRYKMKDLIRFKPSQRQIYLFERGIVFCKIRMEPGDQGLSPHYSFKKTMKLMTLSIRQLGRGSHRKFEIASRNGLEKYILQAASKEIRDCWFSEISKLLM
N-methylanthraniloyl(mant)-GTP incorporation into Rho GTPase, relative fluorescence (guanine nucleotide exchange assay) [1]: KIAA0861 and DBS DH-PH domain proteins are active in exchanging guanine nucleotide from the GST-tag fusions of the GTPases, RhoA and Cdc42
N-methylanthraniloyl(mant)-GTP incorporation into Rho GTPase, relative fluorescence (guanine nucleotide exchange assay) [2]: KIAA0861 and DBS DH-PH domain proteins are active in exchanging guanine nucleotide from the GST-tag fusions of the GTPases, RhoA and Cdc42
